Biological target: human FGFR1-IIIb (human)
Assay: SPR

human FGFR1-IIIb (human), sequence (P11362 22-822): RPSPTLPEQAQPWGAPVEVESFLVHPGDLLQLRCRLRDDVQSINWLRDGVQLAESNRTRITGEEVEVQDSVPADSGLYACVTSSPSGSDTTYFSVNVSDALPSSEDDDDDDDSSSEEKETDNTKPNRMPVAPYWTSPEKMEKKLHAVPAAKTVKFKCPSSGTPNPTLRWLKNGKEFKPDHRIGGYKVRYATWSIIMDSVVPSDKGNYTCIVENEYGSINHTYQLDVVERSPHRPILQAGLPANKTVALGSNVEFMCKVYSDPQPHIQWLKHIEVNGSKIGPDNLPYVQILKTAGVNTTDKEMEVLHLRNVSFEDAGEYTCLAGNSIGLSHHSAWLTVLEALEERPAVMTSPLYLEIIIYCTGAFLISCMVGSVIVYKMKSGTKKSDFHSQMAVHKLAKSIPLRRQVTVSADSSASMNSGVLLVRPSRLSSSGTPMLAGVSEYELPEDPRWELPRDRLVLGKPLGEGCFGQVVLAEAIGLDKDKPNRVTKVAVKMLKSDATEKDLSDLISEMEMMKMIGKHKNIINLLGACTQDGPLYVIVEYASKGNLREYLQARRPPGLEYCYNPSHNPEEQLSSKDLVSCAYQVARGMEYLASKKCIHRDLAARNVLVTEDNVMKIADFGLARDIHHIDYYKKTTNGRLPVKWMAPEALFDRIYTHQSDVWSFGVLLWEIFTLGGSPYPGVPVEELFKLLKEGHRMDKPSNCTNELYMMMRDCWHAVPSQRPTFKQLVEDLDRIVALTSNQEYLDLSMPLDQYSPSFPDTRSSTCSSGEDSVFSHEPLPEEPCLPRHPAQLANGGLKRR

native, recombinant FGF-2 (from UniProt P09038 1-288) (ligand)
Kd: 952 nM

Source: article PMC2883168
